Experiments:
[1] = biological target: SHP2-C SH2; test: SH2 binding enrichment of the phosphorylated peptide, bacterial display (enrichment ratio); higher = better substrate or ligand; peptides without Tyr show the background
[2] = biological target: c-Src SH2; test: as above
[3] = biological target: Grb2 SH2 (UniProt P62993); test: as above
[4] = biological target: FGFR1 (UniProt P11362); test: phosphorylation enrichment, bacterial display (enrichment ratio); higher = better substrate or ligand; peptides without Tyr show the background
Sequence of FGFR1 (P11362 whole entry, looked up): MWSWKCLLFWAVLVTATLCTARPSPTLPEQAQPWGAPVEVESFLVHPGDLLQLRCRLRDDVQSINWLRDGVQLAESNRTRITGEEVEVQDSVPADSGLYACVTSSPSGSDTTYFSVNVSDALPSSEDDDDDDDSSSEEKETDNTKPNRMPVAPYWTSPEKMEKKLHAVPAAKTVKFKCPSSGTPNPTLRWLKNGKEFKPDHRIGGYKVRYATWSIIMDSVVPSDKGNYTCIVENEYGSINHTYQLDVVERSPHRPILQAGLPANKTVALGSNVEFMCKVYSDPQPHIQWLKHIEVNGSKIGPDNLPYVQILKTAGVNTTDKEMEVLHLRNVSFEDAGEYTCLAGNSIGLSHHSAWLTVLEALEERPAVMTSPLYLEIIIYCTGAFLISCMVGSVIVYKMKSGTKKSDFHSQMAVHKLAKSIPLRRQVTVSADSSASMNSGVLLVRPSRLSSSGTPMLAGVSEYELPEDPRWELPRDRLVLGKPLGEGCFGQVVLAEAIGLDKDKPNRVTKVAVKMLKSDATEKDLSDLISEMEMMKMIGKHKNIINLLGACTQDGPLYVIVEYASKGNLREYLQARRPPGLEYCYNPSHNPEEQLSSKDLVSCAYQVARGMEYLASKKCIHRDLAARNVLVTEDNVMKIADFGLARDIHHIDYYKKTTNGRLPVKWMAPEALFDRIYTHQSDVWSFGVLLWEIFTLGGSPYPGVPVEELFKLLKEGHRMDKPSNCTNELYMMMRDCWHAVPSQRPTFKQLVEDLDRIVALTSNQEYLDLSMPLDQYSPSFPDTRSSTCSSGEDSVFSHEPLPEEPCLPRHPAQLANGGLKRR

[5] = biological target: MERTK (UniProt Q12866); test: as above
[6] = biological target: Fyn (UniProt P06241); test: as above
Sequence of Fyn (P06241 whole entry, looked up): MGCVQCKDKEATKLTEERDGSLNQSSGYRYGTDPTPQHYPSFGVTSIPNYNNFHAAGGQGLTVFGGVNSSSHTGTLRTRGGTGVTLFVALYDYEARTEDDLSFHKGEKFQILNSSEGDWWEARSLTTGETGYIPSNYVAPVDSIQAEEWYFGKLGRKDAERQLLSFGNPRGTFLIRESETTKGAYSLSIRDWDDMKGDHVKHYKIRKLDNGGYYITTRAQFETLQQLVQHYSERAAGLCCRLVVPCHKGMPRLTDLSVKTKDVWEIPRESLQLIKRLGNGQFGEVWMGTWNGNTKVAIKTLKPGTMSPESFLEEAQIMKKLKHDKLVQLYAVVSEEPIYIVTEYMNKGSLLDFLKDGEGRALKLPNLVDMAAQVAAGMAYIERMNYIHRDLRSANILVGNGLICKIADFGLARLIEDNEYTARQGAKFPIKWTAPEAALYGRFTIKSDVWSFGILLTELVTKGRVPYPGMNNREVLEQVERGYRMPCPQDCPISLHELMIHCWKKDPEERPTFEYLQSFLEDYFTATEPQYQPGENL

[7] = test system: c-Abl (mouse); test: as above
[8] = biological target: Hck (UniProt P08631); test: as above
Sequence of Hck (P08631 whole entry, looked up): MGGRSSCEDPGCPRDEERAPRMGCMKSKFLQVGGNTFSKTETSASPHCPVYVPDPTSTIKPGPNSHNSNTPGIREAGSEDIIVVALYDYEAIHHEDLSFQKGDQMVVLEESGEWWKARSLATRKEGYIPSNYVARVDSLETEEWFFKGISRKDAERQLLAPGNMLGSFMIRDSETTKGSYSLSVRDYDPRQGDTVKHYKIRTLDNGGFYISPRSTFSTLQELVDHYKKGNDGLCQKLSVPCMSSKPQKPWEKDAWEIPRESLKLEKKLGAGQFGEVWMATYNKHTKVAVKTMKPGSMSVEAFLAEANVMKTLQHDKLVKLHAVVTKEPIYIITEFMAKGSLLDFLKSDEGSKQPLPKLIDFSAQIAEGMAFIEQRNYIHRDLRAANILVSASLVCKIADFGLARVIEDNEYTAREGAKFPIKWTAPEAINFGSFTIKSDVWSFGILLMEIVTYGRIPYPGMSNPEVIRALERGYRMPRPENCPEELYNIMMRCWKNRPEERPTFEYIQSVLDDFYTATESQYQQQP

[9] = biological target: FGFR3 (UniProt P22607); test: as above
[10] = biological target: EPHB2 (UniProt P29323); test: as above
Sequence of EPHB2 (P29323 whole entry, looked up): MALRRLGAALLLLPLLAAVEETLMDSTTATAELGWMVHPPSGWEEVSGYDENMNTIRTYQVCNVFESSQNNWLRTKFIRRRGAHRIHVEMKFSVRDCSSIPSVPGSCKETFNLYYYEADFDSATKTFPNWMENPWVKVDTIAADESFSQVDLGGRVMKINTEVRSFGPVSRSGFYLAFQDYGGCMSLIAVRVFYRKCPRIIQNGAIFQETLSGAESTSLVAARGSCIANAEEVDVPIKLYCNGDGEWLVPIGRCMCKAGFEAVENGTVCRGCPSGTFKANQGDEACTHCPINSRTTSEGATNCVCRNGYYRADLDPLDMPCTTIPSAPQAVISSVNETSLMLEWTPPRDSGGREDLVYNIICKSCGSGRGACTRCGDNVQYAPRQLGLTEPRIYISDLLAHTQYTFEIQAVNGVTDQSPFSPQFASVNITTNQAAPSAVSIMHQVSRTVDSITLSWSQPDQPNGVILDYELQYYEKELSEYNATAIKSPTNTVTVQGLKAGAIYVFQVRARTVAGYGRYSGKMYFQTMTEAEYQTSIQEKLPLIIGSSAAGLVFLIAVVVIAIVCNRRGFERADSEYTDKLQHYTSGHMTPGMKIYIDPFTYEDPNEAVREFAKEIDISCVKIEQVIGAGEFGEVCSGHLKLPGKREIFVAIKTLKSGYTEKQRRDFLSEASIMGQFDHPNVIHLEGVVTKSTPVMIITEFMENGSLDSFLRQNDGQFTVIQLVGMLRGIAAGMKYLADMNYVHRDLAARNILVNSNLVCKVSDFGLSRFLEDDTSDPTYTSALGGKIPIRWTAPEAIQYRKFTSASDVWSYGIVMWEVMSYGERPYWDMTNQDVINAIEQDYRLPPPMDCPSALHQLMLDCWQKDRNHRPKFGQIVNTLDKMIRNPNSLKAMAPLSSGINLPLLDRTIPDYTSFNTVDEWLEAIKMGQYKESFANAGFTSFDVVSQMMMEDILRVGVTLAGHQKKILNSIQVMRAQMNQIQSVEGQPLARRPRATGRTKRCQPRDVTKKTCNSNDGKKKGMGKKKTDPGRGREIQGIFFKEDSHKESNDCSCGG

[11] = biological target: EPHB1 (UniProt P54762); test: as above
[12] = biological target: Jak2 (UniProt O60674); test: as above
Sequence of Jak2 (O60674 whole entry, looked up): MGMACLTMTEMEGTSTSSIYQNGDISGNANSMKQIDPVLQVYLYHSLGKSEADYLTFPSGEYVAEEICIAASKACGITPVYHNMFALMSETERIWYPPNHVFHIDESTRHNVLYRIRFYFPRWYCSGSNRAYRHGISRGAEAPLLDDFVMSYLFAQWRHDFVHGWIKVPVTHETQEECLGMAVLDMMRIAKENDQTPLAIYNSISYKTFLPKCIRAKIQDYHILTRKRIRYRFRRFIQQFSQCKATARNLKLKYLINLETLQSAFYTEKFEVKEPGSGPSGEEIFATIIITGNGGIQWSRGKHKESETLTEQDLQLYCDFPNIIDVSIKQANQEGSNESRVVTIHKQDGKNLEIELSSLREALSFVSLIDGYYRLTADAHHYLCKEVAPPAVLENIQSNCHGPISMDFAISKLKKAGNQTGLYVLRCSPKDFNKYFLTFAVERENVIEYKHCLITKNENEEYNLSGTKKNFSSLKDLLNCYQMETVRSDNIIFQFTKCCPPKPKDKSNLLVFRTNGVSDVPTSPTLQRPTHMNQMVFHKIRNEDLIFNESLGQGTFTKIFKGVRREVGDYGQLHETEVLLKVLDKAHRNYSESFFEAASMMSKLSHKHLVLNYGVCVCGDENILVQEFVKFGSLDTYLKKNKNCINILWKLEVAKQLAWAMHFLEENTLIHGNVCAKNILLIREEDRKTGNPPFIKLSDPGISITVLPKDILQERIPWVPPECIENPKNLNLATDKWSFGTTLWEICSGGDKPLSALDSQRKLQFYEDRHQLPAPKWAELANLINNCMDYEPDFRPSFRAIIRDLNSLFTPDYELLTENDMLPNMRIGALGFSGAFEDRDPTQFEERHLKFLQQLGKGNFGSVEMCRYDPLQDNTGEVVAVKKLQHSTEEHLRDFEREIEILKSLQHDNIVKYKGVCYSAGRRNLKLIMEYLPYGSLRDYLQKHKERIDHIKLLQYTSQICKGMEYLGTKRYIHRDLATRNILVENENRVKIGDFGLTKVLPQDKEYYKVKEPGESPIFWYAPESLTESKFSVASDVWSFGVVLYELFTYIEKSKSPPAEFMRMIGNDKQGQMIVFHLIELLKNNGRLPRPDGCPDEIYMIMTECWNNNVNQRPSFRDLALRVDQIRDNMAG

[13] = test system: AncSZ; test: as above
[14] = biological target: Fes (UniProt P07332); test: as above
Sequence of Fes (P07332 whole entry, looked up): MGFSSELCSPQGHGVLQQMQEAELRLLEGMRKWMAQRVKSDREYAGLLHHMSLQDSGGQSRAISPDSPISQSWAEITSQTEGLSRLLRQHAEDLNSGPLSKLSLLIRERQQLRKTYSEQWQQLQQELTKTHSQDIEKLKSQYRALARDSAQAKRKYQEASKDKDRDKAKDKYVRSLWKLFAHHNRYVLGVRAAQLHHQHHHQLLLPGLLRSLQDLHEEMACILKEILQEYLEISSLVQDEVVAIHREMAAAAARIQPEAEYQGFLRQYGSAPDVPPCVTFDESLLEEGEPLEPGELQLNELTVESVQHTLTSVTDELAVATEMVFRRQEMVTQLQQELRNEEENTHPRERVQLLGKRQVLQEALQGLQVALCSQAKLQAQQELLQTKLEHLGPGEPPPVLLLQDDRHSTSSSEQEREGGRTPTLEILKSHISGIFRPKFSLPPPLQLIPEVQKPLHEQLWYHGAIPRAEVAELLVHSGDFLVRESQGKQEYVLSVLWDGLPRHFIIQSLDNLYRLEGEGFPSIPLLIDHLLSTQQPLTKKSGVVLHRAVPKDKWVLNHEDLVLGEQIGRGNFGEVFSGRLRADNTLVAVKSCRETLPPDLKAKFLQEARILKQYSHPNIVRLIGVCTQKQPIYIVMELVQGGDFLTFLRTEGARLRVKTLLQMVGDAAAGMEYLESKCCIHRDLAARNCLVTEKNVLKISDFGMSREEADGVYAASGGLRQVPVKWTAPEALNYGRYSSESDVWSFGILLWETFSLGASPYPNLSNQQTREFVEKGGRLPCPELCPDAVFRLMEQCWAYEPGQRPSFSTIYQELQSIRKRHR

[15] = test system: Fer (mouse); test: as above
[16] = test system: c-Src; test: as above
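Wherever SH2 binding enrichment of the phosphorylated peptide, bacterial display is given: peptide library displayed on the E. coli surface as eCPX fusions, selected cells deep-sequenced, score is each peptide's frequency after selection divided by its frequency in the input.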
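Wherever phosphorylation enrichment, bacterial display is given: 11-residue human phosphosite peptides and single-mutation variants displayed on the E. coli surface, counted by deep sequencing, each peptide's frequency after selection divided by its frequency in the unselected input library; frequency after pTyr selection over input frequency; kinase dosed for 20-30% of maximal phosphorylation in three min.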

Row | Sequence | SH2 binding enrichment [1] | SH2 binding enrichment [2] | SH2 binding enrichment [3] | phosphorylation enrichment [4] | phosphorylation enrichment [5] | phosphorylation enrichment [6] | phosphorylation enrichment [7] | phosphorylation enrichment [8] | phosphorylation enrichment [9] | phosphorylation enrichment [10] | phosphorylation enrichment [11] | phosphorylation enrichment [12] | phosphorylation enrichment [13] | phosphorylation enrichment [14] | phosphorylation enrichment [15] | phosphorylation enrichment [16]
1 | MARDIYQASFF [LTK_Y672_R673Q_YF] | 0.678 | 0.466 | 0.972 | 0.679 | 5.44 | 6.4 | 5.43 | 7.31 | 0.564 | 1.7 | 2.15 | 0.992 | 0.966 | 0.887 | 3.26 | 6.07
2 | EVDELYREAPI [MYL12B_Y143] | 0.719 | 0.475 | 0.867 | 0.86 | 0.598 | 0.654 | 0.962 | 0.705 | 1.11 | 0.654 | 0.784 | 1.29 | 1.27 | 1.39 | 0.62 | 0.52
3 | NGPDVYVLPVT [AATK_Y93_L97V] | 0.617 | 0.594 | 0.902 | 0.72 | 2.73 | 2.25 | 0.787 | 0.776 | 0.751 | 0.644 | 0.723 | 0.837 | 1.79 | 1.05 | 0.453 | 1.2
4 | QCTSAYPLQPE [NANS_Y188] | 1.09 | 0.594 | 1.06 | 0.616 | 0.682 | 0.832 | 2.7 | 0.623 | 0.942 | 0.813 | 0.719 | 1.65 | 1.51 | 1.46 | 0.675 | 0.728
5 | FDDIAYIQKTL [PIK3CA_Y1021_R1023Q] | 0.939 | 0.626 | 0.939 | 0.503 | 0.529 | 0.479 | 0.591 | 0.488 | 0.6 | 0.68 | 0.425 | 0.952 | 0.832 | 0.819 | 0.352 | 0.485
6 | PQEVMYAQLDH [KIR3DL2_Y398_T397M] | 6.57 | 1.21 | 0.748 | 2.69 | 6.77 | 6.26 | 7.37 | 5.19 | 2.2 | 0.621 | 1.06 | 1.71 | 1.62 | 1.52 | 4.04 | 7.15
7 | CTTIHYNFMHN [TP53_Y234_C238H_YF] | 0.836 | 0.85 | 1.07 | 0.457 | 0.454 | 0.566 | 0.765 | 0.517 | 0.676 | 0.54 | 0.583 | 0.799 | 0.829 | 1 | 0.463 | 0.432
8 | KSEMSYIDGEK [SORBS1_Y485] | 0.68 | 0.467 | 0.697 | 0.659 | 0.479 | 0.502 | 0.586 | 0.469 | 0.592 | 0.999 | 0.72 | 0.736 | 0.899 | 0.848 | 0.493 | 0.449
9 | SEDANYMRVSC [TTC3_Y1288_K1289M] | 0.746 | 0.534 | 0.819 | 0.735 | 0.455 | 0.529 | 0.7 | 0.563 | 0.742 | 1.42 | 2.98 | 0.743 | 1.03 | 0.958 | 0.645 | 0.468
10 | CTTIHYNYMCH [TP53_Y234_N239H] | 2.4 | 3.68 | 1.26 | 0.514 | 0.407 | 0.449 | 0.581 | 0.49 | 0.706 | 0.761 | 0.724 | 0.672 | 0.751 | 0.855 | 0.597 | 0.506
11 | ENEGTYVCIAA [ADAMTSL3_Y1365_T1370A] | 0.402 | 0.425 | 0.471 | 1.53 | 0.69 | 1.39 | 1.08 | 1.21 | 1.62 | 1.09 | 1.55 | 1.05 | 1.34 | 1.36 | 1.05 | 1.75
12 | NPQKSYFIRLY [WAS_Y83] | 0.937 | 0.517 | 1.06 | 0.486 | 0.353 | 0.372 | 0.724 | 0.452 | 0.745 | 0.637 | 0.61 | 1.07 | 1.16 | 1.15 | 0.542 | 0.349
13 | PESCLYKESWL [IQGAP2_Y630] | 1.06 | 0.523 | 0.916 | 1.55 | 1.2 | 1.21 | 1.46 | 1.5 | 2.14 | 1.2 | 1.29 | 2.09 | 2.25 | 2.81 | 1.18 | 0.775
14 | RRSQSYNPTSG [PLEKHA2_Y185_I186N] | 0.461 | 0.323 | 0.692 | 0.649 | 0.491 | 0.897 | 0.765 | 0.821 | 0.523 | 0.512 | 0.435 | 0.809 | 0.612 | 0.972 | 0.458 | 0.811
15 | DEENFYQGSME [ASCC1_Y36_D34N] | 0.701 | 0.556 | 0.891 | 0.465 | 0.517 | 0.498 | 0.821 | 0.7 | 0.647 | 0.604 | 0.588 | 1.05 | 1.3 | 1.36 | 0.624 | 0.733
16 | DKNSSYFADWL [TUBB8_Y340] | 0.853 | 0.766 | 0.99 | 1.51 | 1.15 | 0.584 | 0.746 | 0.492 | 1.38 | 0.53 | 0.573 | 1.39 | 1.13 | 1.09 | 0.564 | 0.512
17 | ITLPIYTKESE [ANK2_Y1455] | 0.72 | 0.515 | 0.845 | 0.722 | 1.75 | 0.88 | 0.848 | 0.907 | 0.76 | 0.499 | 0.641 | 1.11 | 0.961 | 1.19 | 0.485 | 0.974
